Assay results as given in paper PMC3149649, “Evidence for a Two-Metal-Ion Mechanism in the Cytidyltransferase KdsB, an Enzyme Involved in Lipopolysaccharide Biosynthesis” (PLoS ONE, 2011).

Substrate: Nc1ccn([C@@H]2O[C@H](COP(=O)(O)OP(=O)(O)OP(=O)(O)O)[C@@H](O)[C@H]2O)c(=O)n1
Experiment: discontinuous CMP-Kdo formation assay (Ray et al.), non-linear Michaelis-Menten fit
Assay type: biochemical, Aquifex aeolicus
Conditions: co-substrate Kdo held constant (>5 x Km), 10 mM MgCl2 (typical mixture), 100 mM glycine-NaOH pH 9.0, 50°C

B1: AA-LCKS (LPS-specific CMP-Kdo synthetase, KdsB) (Aquifex aeolicus VF5) (protein)
chain: MRRAVIIPARLGSTRLKEKPLKNLLGKPLIRWVVEGLVKTGERVILATDSERVKEVVEDLCEVFLTPSDLPSGSDRVLYVVRDLDVDLIINYQGDEPFVYEEDIKLIFRELEKGERVVTLARKDKEAYERPEDVKVVLDREGYALYFSRSPIPYFRKNDTFYPLKHVGIYGFRKETLMEFGAMPPSKLEQIEGLEQLRLLENGIKIKVLITENYYHGVDTEEDLKIVEEKLKNL
notes: recombinant from plasmid pT7-kdsB in E. coli BL21-CodonPlus(DE3)-RIL; no tag mentioned; monomer 27 kDa, gel filtration 53 kDa, homodimer
Q: B1 was tested. Which Km did it give?
A: 160 ± 4 µM

Q: What about the kcat of the same protein?
A: 9.5 ± 0.5 s⁻¹
